Laboratory results taken from publication PMC4982613.

Experiments:
Assay in all cases: EMSA
[1] = target: NEIL1 DE S207E;S306E (human) (UniProt Q96FI4); conditions: tetrahydrofuran (abasic site analog) at position 14 of strand 1 (N), opposite C; EMSA: 10 pM 32P-DNA, 0-600 nM enzyme, 10% native PAGE, 2 h at 10 mA; binding buffer, salt, pH and temperature not stated; one-site specific binding fit (Prism …)
[2] = target: NEIL1 S61A S61A (human) (UniProt Q96FI4); conditions: tetrahydrofuran (abasic site analog) at position 14 of strand 1 (N), opposite C; EMSA: 10 pM 32P-DNA, 0-600 nM enzyme, 10% native PAGE, 2 h at 10 mA; binding buffer, salt, pH and temperature not stated; one-site specific binding fit (Prism …)
Sequence of NEIL1 S61A S61A (human) (Q96FI4 whole entry S61A): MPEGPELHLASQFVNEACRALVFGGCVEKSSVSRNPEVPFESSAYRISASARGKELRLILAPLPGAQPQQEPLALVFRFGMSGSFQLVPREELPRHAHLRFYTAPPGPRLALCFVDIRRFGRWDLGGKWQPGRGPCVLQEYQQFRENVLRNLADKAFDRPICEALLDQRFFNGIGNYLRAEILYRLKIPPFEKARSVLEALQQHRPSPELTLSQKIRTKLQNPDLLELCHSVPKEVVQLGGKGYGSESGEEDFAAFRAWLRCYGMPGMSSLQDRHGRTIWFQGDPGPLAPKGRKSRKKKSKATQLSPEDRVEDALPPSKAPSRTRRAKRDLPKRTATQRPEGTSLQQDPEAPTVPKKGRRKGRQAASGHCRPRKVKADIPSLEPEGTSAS

[3] = target: NEIL1 S306E S306E (human) (UniProt Q96FI4); conditions: tetrahydrofuran (abasic site analog) at position 14 of strand 1 (N), opposite C; EMSA: 10 pM 32P-DNA, 0-600 nM enzyme, 10% native PAGE, 2 h at 10 mA; binding buffer, salt, pH and temperature not stated; one-site specific binding fit (Prism …)
Sequence of NEIL1 S306E S306E (human) (Q96FI4 whole entry S306E): as the sequence (Q96FI4 whole entry S61A) above, with A61S, S306E counted along it

[4] = target: NEIL1 WT (human) (UniProt Q96FI4); conditions: tetrahydrofuran (abasic site analog) at position 14 of strand 1 (N), opposite C; EMSA: 10 pM 32P-DNA, 0-600 nM enzyme, 10% native PAGE, 2 h at 10 mA; binding buffer, salt, pH and temperature not stated; one-site specific binding fit (Prism …)
Sequence of NEIL1 WT (human) (Q96FI4 whole entry): as the sequence (Q96FI4 whole entry S61A) above, with A61S counted along it

[5] = target: NEIL1 DA S207A;S306A (human) (UniProt Q96FI4); conditions: tetrahydrofuran (abasic site analog) at position 14 of strand 1 (N), opposite C; EMSA: 10 pM 32P-DNA, 0-600 nM enzyme, 10% native PAGE, 2 h at 10 mA; binding buffer, salt, pH and temperature not stated; one-site specific binding fit (Prism …)
Sequence of NEIL1 DA S207A;S306A (human) (Q96FI4 whole entry S207A/S306A): as the sequence (Q96FI4 whole entry S61A) above, with A61S, S207A, S306A counted along it

[6] = target: NEIL1 S207E S207E (human) (UniProt Q96FI4); conditions: tetrahydrofuran (abasic site analog) at position 14 of strand 1 (N), opposite C; EMSA: 10 pM 32P-DNA, 0-600 nM enzyme, 10% native PAGE, 2 h at 10 mA; binding buffer, salt, pH and temperature not stated; one-site specific binding fit (Prism …)
Sequence of NEIL1 S207E S207E (human) (Q96FI4 whole entry S207E): as the sequence (Q96FI4 whole entry S61A) above, with A61S, S207E counted along it

[7] = target: NEIL1 TE S207E;S306E;S61E (human) (UniProt Q96FI4); conditions: upper bands may lower Kd; tetrahydrofuran (abasic site analog) at position 14 of strand 1 (N), opposite C; EMSA: 10 pM 32P-DNA, 0-600 nM enzyme, 10% native PAGE, 2 h at 10 mA; binding buffer, salt, pH and temperature not stated; one-site specific binding fit (Prism …)
Sequence of NEIL1 TE S207E;S306E;S61E (human) (Q96FI4 whole entry S61E/S207E/S306E): as the sequence (Q96FI4 whole entry S61A) above, with A61E, S207E, S306E counted along it

[8] = target: NEIL1 S306A S306A (human) (UniProt Q96FI4); conditions: upper bands may lower Kd; tetrahydrofuran (abasic site analog) at position 14 of strand 1 (N), opposite C; EMSA: 10 pM 32P-DNA, 0-600 nM enzyme, 10% native PAGE, 2 h at 10 mA; binding buffer, salt, pH and temperature not stated; one-site specific binding fit (Prism …)
Sequence of NEIL1 S306A S306A (human) (Q96FI4 whole entry S306A): as the sequence (Q96FI4 whole entry S61A) above, with A61S, S306A counted along it

[9] = target: NEIL1 TA S207A;S306A;S61A (human) (UniProt Q96FI4); conditions: tetrahydrofuran (abasic site analog) at position 14 of strand 1 (N), opposite C; EMSA: 10 pM 32P-DNA, 0-600 nM enzyme, 10% native PAGE, 2 h at 10 mA; binding buffer, salt, pH and temperature not stated; one-site specific binding fit (Prism …)
Sequence of NEIL1 TA S207A;S306A;S61A (human) (Q96FI4 whole entry S61A/S207A/S306A): as the sequence (Q96FI4 whole entry S61A) above, with S207A, S306A counted along it

[10] = target: NEIL1 S61E S61E (human) (UniProt Q96FI4); conditions: tetrahydrofuran (abasic site analog) at position 14 of strand 1 (N), opposite C; EMSA: 10 pM 32P-DNA, 0-600 nM enzyme, 10% native PAGE, 2 h at 10 mA; binding buffer, salt, pH and temperature not stated; one-site specific binding fit (Prism …)
Sequence of NEIL1 S61E S61E (human) (Q96FI4 whole entry S61E): as the sequence (Q96FI4 whole entry S61A) above, with A61E counted along it

[11] = target: NEIL1 S207A S207A (human) (UniProt Q96FI4); conditions: multiple complexes (C1+C2+C3) quantified; tetrahydrofuran (abasic site analog) at position 14 of strand 1 (N), opposite C; EMSA: 10 pM 32P-DNA, 0-600 nM enzyme, 10% native PAGE, 2 h at 10 mA; binding buffer, salt, pH and temperature not stated; one-site specific binding fit (Prism …)
Sequence of NEIL1 S207A S207A (human) (Q96FI4 whole entry S207A): as the sequence (Q96FI4 whole entry S61A) above, with A61S, S207A counted along it

Sequence of NEIL1 DE S207E;S306E (human) (Q96FI4 whole entry S207E/S306E): as the sequence (Q96FI4 whole entry S61A) above, with A61S, S207E, S306E counted along it

Question: How did the Kd [1] turn out when “TGTCAATAGCAAGNGGAGAAGTCAATCGTGAGTCT / AGACTCACGATTGACTTCTCCCCTTGCTATTGACA [35-mer Furan:C duplex]” was run?
Answer: 15 nM

Question: And the Kd [2]?
Answer: 16.2 nM

Question: And the Kd [3]?
Answer: 7.8 nM

Question: And the Kd [4]?
Answer: 23 nM

Question: What about the Kd [5] of the same sequence?
Answer: 10.8 nM

Question: And the Kd [6]?
Answer: 4.5 nM

Question: And the Kd [7]?
Answer: 1.3 nM

Question: And the Kd [8]?
Answer: 2.3 nM

Question: What about the Kd [9] of the same sequence?
Answer: 13.2 nM

Question: What about the Kd [10] of the same sequence?
Answer: 19.6 nM

Question: What about the Kd [11] of the same sequence?
Answer: 3.2 nM
